US20180327506A1 (AbbVie / Abbott, published 2018)
Read-outs that look alike come from different tables or passages of the source. One block for each binder: values may come before it.

Legend:
[1] = molecular target: T1, full-length mature human EMR2 (residues Q24-N823) with N-terminal aspartic acid/lysine epitope tag, … (human, UniProt Q9UHX3 24-823); assay: cell-based or functional assay
T1 sequence: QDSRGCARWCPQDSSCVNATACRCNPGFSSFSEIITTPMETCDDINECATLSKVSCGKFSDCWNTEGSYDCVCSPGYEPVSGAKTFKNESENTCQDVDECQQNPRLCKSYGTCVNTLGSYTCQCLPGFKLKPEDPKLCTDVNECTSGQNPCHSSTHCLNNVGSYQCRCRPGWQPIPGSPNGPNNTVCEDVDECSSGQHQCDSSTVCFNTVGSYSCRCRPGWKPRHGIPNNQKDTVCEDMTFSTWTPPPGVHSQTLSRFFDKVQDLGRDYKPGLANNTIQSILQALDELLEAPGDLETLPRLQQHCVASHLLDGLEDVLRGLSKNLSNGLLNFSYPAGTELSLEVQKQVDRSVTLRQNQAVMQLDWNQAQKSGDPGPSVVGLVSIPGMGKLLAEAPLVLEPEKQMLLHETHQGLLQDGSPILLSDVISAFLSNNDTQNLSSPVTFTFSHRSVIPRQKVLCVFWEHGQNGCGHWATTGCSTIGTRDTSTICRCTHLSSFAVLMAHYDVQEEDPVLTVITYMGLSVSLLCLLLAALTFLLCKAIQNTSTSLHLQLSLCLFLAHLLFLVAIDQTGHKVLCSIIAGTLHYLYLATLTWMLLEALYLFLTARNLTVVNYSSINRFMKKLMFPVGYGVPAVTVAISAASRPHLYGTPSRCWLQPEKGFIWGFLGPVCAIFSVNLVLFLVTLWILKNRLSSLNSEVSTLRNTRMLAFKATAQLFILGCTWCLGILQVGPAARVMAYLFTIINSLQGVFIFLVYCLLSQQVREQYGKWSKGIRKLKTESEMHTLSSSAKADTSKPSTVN

[2] = molecular target: T2, full-length mature cynomolgus EMR2 (residues Q24-N816) with N-terminal aspartic acid/lysine epitope tag, … (cynomolgus monkey (Macaca fascicularis), UniProt A0A2K5WL23 21-816); assay: cell-based or functional assay
T2 sequence: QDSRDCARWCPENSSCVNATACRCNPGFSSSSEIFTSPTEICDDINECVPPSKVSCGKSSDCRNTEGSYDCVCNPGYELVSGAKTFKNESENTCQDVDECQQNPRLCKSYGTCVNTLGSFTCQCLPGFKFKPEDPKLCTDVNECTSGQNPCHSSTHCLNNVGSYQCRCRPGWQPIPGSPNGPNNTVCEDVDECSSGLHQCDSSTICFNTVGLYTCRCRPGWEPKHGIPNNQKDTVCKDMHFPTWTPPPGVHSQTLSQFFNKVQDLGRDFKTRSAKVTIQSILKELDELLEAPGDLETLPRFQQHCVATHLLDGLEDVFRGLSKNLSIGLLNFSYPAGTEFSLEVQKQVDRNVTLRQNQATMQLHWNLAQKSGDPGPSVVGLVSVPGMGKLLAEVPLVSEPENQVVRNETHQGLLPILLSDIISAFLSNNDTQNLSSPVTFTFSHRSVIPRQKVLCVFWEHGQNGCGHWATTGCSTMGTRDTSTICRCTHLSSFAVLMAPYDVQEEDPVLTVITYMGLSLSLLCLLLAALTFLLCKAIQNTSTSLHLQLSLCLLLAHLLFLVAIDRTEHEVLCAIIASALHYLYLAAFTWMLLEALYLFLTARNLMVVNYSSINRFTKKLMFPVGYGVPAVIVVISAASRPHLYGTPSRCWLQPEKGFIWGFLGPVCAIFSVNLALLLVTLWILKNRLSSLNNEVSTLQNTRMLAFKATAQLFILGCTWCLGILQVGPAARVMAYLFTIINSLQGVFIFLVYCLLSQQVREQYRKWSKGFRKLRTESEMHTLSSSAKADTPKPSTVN

[3] = molecular target: T3, full-length mature human CD97 (residues Q21-I845) with N-terminal aspartic acid/lysine epitope tag, … (human, UniProt P48960 21-835); assay: cell-based or functional assay
T3 sequence (looked up): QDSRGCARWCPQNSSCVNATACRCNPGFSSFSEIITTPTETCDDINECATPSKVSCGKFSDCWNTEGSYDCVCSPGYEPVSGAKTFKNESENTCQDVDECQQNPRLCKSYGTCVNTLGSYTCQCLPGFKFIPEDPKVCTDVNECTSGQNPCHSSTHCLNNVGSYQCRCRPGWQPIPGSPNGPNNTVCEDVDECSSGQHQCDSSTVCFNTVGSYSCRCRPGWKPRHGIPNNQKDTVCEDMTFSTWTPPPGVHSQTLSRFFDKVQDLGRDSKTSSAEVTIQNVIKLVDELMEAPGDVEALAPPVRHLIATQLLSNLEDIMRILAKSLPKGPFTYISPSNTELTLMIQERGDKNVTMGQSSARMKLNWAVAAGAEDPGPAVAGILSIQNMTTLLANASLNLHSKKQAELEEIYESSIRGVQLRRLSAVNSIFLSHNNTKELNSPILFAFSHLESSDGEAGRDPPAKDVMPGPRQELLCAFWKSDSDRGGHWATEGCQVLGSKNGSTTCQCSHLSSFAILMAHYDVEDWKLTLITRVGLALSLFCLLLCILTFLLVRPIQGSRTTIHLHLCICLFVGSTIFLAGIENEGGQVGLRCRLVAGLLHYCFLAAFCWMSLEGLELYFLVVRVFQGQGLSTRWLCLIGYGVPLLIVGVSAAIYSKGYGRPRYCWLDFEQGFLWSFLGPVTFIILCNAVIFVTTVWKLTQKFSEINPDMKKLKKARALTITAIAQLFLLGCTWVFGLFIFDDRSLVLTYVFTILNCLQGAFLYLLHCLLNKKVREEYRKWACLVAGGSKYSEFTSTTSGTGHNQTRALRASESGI

[4] = molecular target: T1, full-length mature human EMR2 (residues …); assay: flow cytometry on transduced HEK293T; 293 naive MFI 97.2
Experimental: (§1) The exemplary antibodies were also tested using flow cytometry to determine their ability to associate with hEMR2, cEMR2 and CD97 expressed on the surface of cells.

[5] = molecular target: T2, full-length mature cynomolgus EMR2 …; assay: as above
Experimental: as §1

[6] = molecular target: T3, full-length mature human CD97 (residues …); assay: as above
Experimental: as §1

[7] = molecular target: T1, full-length mature human EMR2 (residues …); assay: flow cytometry on transduced HEK293T; 293 naive MFI 67.6
Experimental: as §1

[8] = molecular target: T2, full-length mature cynomolgus EMR2 …; assay: as above
Experimental: as §1

[9] = molecular target: T3, full-length mature human CD97 (residues …); assay: as above
Experimental: as §1

[10] = molecular target: T1, full-length mature human EMR2 (residues …); assay: flow cytometry on transduced HEK293T; 293 naive MFI 95.6
Experimental: as §1

[11] = molecular target: T2, full-length mature cynomolgus EMR2 …; assay: as above
Experimental: as §1

[12] = molecular target: T3, full-length mature human CD97 (residues …); assay: as above
Experimental: as §1

[13] = molecular target: T1, full-length mature human EMR2 (residues …); assay: cell-based or functional assay; remark: listed apart in the source
[14] = molecular target: T2, full-length mature cynomolgus EMR2 …; assay: cell-based or functional assay; remark: listed apart in the source
[15] = molecular target: T3, full-length mature human CD97 (residues …); assay: cell-based or functional assay; remark: listed apart in the source
[16] = molecular target: T3, full-length mature human CD97 (residues …); assay: flow cytometry on HEK293T cells overexpressing hCD97
Experimental: as §1

[17] = molecular target: T1, full-length mature human EMR2 (residues …); assay: flow cytometry on transduced HEK293T; 293 naive MFI 102
Experimental: as §1

[18] = molecular target: T2, full-length mature cynomolgus EMR2 …; assay: as above
Experimental: as §1

[19] = molecular target: T3, full-length mature human CD97 (residues …); assay: as above
Experimental: as §1

B3: SC93.219 (antibody, IgG2b, V domains shown)
VH: EVQLVESGGGLVQPGGSRKLSCAASGFTFSSYGMHWVRQAPEKGLEWVAYISSSGGTIYYADTVKGRFTISRDNAKNTLFLQMTSLRSEDTAMYYCARRGYGNSFDYWGQGTTLTVSS
VL: QIVLTQSPAIMSASPGEKVTMTCSASSSVSYMYWYQQKPGSSPRLLIYDTSNLASGVPVRFSGSGSGTSYSLTISRMEAEDAATYYCQQWSSYPPFGGGTKLEIK
notes: murine, IgG2b
% live, FAB-saporin killing assay [1]: 100% | % live, FAB-saporin killing assay [2]: 87.7% | % live, FAB-saporin killing assay [3]: 102% | FC MFI [10]: 76.2 | FC MFI [11]: 85.3 | FC MFI [12]: 87.5

B4: SC93.266 (antibody, V domains shown)
VH: EVKLEESGGGLVQPGGSMKLSCAASGFTFSDAWMDWVRQSPEKGLEWVAEIRSKVNNHETYYAESVKGRFTISRDDSKSSVYLQMNSLRAEDTGIYYCIRNDYFDYWGQGTTLTVSS
VL: DIQMTQTTSSLSASLGDRVTISCSASQGIRNYLNWYQQKPDGTVKLLIYYTSRLHSGVPSRFSGSGSGTDYSLTISNLEPEDIATYYCQQYGKLPYTFGGGTKLEIN
notes: Murine hybridoma antibody
% live, FAB-saporin killing assay [13]: 13.1% | % live, FAB-saporin killing assay [14]: 12.7% | % live, FAB-saporin killing assay [15]: 99.2% | binding result [16]: no binding | FC MFI [17]: 49900 | FC MFI [18]: 40400 | FC MFI [19]: 98.3

Continued, in another order:

FC MFI [4]: 5080 | FC MFI [5]: 72.5 | FC MFI [6]: 74.2
B1: SC93.221 (antibody, IgG1, V domains shown)
VH: QIQLVQSGSELKKPGETVKISCKASGYTFTDYSINWVKQAPGKGFKWMGWINTYTGVPTYADDFKGRFAFSLETSATTAYLQINNLKNEDTATYFCARARYDGYYGRFDYWGQGTTLTVSS
VL: DFLMTQTPLSLPVSLGDQASISCRSSQSIVHSNGDTYLEWFLQKPGQSPKLLIYKVSNRFSGVPDRFSGSGSGTDFTLKISRVEAEDLGVYYCFQGSHVPFTFGSGTKLEIK
notes: murine, IgG1
% live, FAB-saporin killing assay [1]: 101% | % live, FAB-saporin killing assay [2]: 92.2% | % live, FAB-saporin killing assay [3]: 99.1%

FC MFI [7]: 26000 | FC MFI [8]: 62.6 | FC MFI [9]: 61.8
B2: SC93.160 (antibody, IgG2a, V domains shown)
VH: QILLVQSGPELKKPGETVKISCKASGYTFTDYGIHWVKQAPGKGLKWMGWINTKTGVPTYADDFKGRFAFSLETSASTAYLQINNLKIEDTATYFCAGGNSLYYGSRPYWGQGTLVTVSA
VL: DIVMTQSPSSLTVTAGEKVTMSCKSSQSLLNSGNQKNYLTWYQQKPGQPPKLLIYWASTRESGVPDRFTGSGSGTDFTLTISSVQAEDLAVYYCQNDYSYPTFGSGTKLELK
notes: murine, IgG2a
% live, FAB-saporin killing assay [1]: 96.8% | % live, FAB-saporin killing assay [2]: 101% | % live, FAB-saporin killing assay [3]: 105%
